Common to all, as to test: AlphaScreen or HTRF; saturation binding: HEK293 cells transfected with SNAP-tagged receptor (WT or mutant) and labelled with SNAP-Lumi4-Tb, incubated with increasing concentrations of galanin-A2 in the presence or absence of 100 uM unlabeled galanin, 1 h at room temperature; HTRF ratio 665 nm/620 nm
Common to all, as to settings: one partner purified
For orientation: Bead proximity is the source of the signal in Alpha formats.

One assay addresses T1, SNAP-GAL1R H263^6.51A (human, UniProt P47211 1-349, H263^6.51A, Lumi4-Tb on the SNAP tag).
T1 construct: also called H263A; source: HEK293, transfected, on cells; not shown: SNAP tag, N-terminal, kept
T1 sequence (looked up): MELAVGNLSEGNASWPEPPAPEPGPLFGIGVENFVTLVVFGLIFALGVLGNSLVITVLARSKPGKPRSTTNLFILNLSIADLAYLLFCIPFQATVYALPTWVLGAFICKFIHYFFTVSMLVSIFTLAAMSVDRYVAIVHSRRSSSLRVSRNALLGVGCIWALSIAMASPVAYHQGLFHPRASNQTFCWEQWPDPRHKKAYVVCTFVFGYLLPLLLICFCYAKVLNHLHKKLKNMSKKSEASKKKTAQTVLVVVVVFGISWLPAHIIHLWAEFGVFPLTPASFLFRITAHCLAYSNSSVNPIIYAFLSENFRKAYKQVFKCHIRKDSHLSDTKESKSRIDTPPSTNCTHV

The target of a further assay is T2, SNAP-GAL1R K197^5.35A (human, UniProt P47211 1-349, K197^5.35A, Lumi4-Tb on the SNAP tag).
T2 construct: also called K197A; source: HEK293, transfected, on cells; not shown: SNAP tag, N-terminal, kept
T2 sequence (looked up): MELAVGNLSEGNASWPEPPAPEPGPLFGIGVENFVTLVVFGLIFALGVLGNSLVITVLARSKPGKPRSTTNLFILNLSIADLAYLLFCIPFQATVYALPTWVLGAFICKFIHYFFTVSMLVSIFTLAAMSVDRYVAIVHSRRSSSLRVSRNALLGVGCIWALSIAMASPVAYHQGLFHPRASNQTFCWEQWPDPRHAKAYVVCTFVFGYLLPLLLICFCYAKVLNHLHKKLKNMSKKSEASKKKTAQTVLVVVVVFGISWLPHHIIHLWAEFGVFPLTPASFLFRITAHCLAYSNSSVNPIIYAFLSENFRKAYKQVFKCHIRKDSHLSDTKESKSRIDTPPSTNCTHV

In a further assay the target is T3, SNAP-GAL1R F177^ECL2A (human, UniProt P47211 1-349, F177^ECL2A, Lumi4-Tb on the SNAP tag).
T3 construct: also called F177A; source: HEK293, transfected, on cells; not shown: SNAP tag, N-terminal, kept
T3 sequence (looked up): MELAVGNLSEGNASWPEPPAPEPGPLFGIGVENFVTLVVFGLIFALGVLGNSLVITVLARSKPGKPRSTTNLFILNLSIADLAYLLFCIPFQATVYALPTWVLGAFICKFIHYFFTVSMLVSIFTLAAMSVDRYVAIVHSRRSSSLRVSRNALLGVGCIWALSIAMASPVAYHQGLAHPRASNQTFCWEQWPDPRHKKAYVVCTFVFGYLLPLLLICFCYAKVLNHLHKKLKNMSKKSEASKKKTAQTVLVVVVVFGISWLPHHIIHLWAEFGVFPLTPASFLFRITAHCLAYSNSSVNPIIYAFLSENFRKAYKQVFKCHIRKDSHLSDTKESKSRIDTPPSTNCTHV

The target in a further assay is T4, SNAP-GAL1R W260^6.48A (human, UniProt P47211 1-349, W260^6.48A, Lumi4-Tb on the SNAP tag).
T4 construct: also called W260A; source: HEK293, transfected, on cells; not shown: SNAP tag, N-terminal, kept
T4 sequence (looked up): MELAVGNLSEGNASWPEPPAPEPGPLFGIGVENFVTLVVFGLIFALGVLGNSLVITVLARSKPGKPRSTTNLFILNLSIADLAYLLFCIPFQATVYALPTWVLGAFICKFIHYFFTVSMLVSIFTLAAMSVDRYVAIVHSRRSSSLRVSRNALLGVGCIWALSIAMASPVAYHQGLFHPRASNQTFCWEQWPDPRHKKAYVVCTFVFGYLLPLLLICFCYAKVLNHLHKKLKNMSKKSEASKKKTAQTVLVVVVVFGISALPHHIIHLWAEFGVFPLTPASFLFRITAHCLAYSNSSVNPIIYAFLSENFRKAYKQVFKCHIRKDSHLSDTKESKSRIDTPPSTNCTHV

The target in a further assay is T5, SNAP-GAL1R H289^7.39A (human, UniProt P47211 1-349, H289^7.39A, Lumi4-Tb on the SNAP tag).
T5 construct: also called H289A; source: HEK293, transfected, on cells; not shown: SNAP tag, N-terminal, kept
T5 sequence (looked up): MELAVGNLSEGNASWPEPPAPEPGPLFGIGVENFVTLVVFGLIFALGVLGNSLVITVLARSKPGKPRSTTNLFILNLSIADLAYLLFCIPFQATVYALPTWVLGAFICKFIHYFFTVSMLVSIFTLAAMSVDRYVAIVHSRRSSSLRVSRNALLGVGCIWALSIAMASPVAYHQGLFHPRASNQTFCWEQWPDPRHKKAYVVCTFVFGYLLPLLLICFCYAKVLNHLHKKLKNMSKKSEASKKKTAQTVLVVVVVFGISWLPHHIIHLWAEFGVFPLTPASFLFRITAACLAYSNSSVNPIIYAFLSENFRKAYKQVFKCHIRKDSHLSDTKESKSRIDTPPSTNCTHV

Consider one molecule from PMC8924211 (Nature Communications, 2022).

B1: galanin-A2 (full-length galanin labeled with the dye A2 on an additional cysteine at the C-terminal end) (peptide)
peptide: GWTLNSAGYLLGPHAVGNHRSFSDKNGLTSC
modifications: dye A2 on the additional C-terminal cysteine
notes: numbers count on: the mature protein; additional cysteine at the C-terminal end of the peptide, carries the dye A2; source: synthetic peptide (synthesized by Vazyme, China)
As usually defined, the Kd is the concentration at which binding is half-saturated. With B1, the Kd with SNAP-GAL1R H263^6.51A came to 213 nM; with SNAP-GAL1R K197^5.35A it was 159 nM; with SNAP-GAL1R F177^ECL2A, 305 nM; with SNAP-GAL1R W260^6.48A, 51.2 nM; with SNAP-GAL1R H289^7.39A it was 136 nM.
